Values quoted from earlier work as cited in patent publication US20250341526A1, “NOVEL DYES” (Quantum-Si Incorporated, priority 2024, published 2025).

B1: PS553: ClpS amino acid recognition protein, SEQ ID NO: 67 (protein, listed as Planctomycetes bacterium)
chain: MPASASAVTEPPVSLPEAAAPRPKDRPKRQPRYHVILWNDDDHTYQYVVAMLRQLFGHPPEKGFTLAKQVDKDGRVVVLTTTKEHAELKRDQIHAFGADRLLARSKGSMSASIEPEASTG
B2: PS433: ClpS amino acid recognition protein, SEQ ID NO: 56 (protein)
chain: MMSSLKECSIQALPSLDEKTKTEEDLSVPWKVIVLNDPVNLMSYVVMVFRKVFGYNENKATKHMMEVHQLGKSVLWTGQREEAECYAYQLQRWRLQTILEKDD
B3: PS548: ClpS amino acid recognition protein, SEQ ID NO: 62 (protein, listed as Gemmataceae bacterium)
chain: MSDTITLPEEKTDVRTKRQPPYHVILLNDDDHTYQYVIYMLQTLFGHPPETGFKMAQEVDKTGRVIVDTTSLERAELKRDQIHAFGPDPYIERCKGSMSAMIEPSE
B4: PS545: ClpS amino acid recognition protein, SEQ ID NO: 59 (protein, listed as Planctomycetales bacterium)
chain: MSEPMTLPAIPQPRLKERTQRQPPYNVILLNDDDHSYEYVIAMLQVLFGYPREKGYQMAKEVDSTGRVILLTTTREHAELKQEQIHAFGPDPLMARCQGSMTAVIEPAV
B5: PS427: ClpS amino acid recognition protein, SEQ ID NO: 50 (protein)
chain: MSTKEKVKERVREKEAISFNNEIIVYNDDVNTFDHVIETLIRVCNHTPEQAEQCSLIVHYNGKCTVKTGSMDKLKPQCTQLLEAGLSAEIV
B6: PS430: ClpS amino acid recognition protein, SEQ ID NO: 53 (protein)
chain: MQPFEETYTDVLDEVVDTDVHNLVVFNDDVNTFDHVIETLIDVCKHTPEQAEQCTLLIHYKGKCSVKNGSWEELVPMRNEICRRGISAEVLK
B7: PS421: ClpS amino acid recognition protein, SEQ ID NO: 44 (protein)
chain: MTTPNKRPEFEPEIGLEDEVGEPRKYKVLLHNDDYTTMDFVVQVLIEVFRKSETEATHIMLTIHEKGVGTCGIYPAEVAETKINEVHTRARREGFPLRASMEEV
B8: PS550: ClpS amino acid recognition protein, SEQ ID NO: 64 (protein, listed as Planctomycetes bacterium)
chain: MPTFTEPEVVNDTRILPPYHVILLNDDDHTYEYVIHMLQTLFGHPQERGFQLAVEVDKKGKAIVFTTSKEHAEFKRDQIHAFGADPLSSKNCKGSMSAVIEPSF
B9: PS551: ClpS amino acid recognition protein, SEQ ID NO: 65 (protein, listed as Rubrobacter indicoceani)
chain: MPSAAPAKPKTKRQSRTQGMPPYNVVLLDDDDHTYGYVIEMLNKVFGHPPEKGFELATEVDKNGRVIVMTTNLEVAELKRDEVHAFGPDPLMPRSKGSMSAVVERAG
B10: PS424: ClpS amino acid recognition protein, SEQ ID NO: 47 (protein)
chain: MSVETIEKRSTTRKLAPQYRVLLHNDDYNSMEYVVQVLMTSVPSITQPQAVNIMMEAHNSGLALVITCAQEHAEFYCETLKGHGLSSTIEPD
B11: PS422: ClpS amino acid recognition protein, SEQ ID NO: 45 (protein)
chain: MTQIKPQTIPDTDVISQTQSDWQMPDLYAVIMHNDDYTTMDFVVFLLNAVFDKPIEQAYQLMMQIHQTGRAVVAILPYEIAEMKVDEATSLAEQEQFPLFISIEQA
B12: PS425: ClpS amino acid recognition protein, SEQ ID NO: 48 (protein)
chain: MTHYFSNILRDQESPKINPKELEQIDVLEEKEHQIILYNDDVNTFEHVIDCLVKICEHNYLQAEQCAYIVHHSGKCSVKTGSLDELVPKCNALLEEGLSAEVV
B13: PS420: ClpS amino acid recognition protein, SEQ ID NO: 43 (protein)
chain: MSDYSNQISQAGSGVAEDASITLPPERKVVFYNDDFTTMEFVVDVLVSIFNKSHSEAEELMQTVHQEGSSVVGVYTYDIAVSRTNLTIQAARKNGFPLRVEVE
B14: PS552: ClpS amino acid recognition protein, SEQ ID NO: 66 (protein)
chain: MSKTSTLPEVESESAQKLKYQPPYHVILLNDDDHSYVYVITMLKELFGHPEQKGYQLADAVDKQGRAIVFTTTREHAELKQEQIHAYGPDPTIPRCKGAMTAVIEPAE
modifications: Fimbriiglobus ruber
B15: PS549: ClpS amino acid recognition protein, SEQ ID NO: 63 (protein, listed as Planctomycetes bacterium)
chain: MSESITTLPKKSRRLKEEEEQKTKRQPPYNVILLNDDDHTFEYVIFMLQKLFGHPPERGMQMAKEVHTTGRVIVMTTALELAELKRDQIHAFGPDPLIDRCKGSMSATIEPAPI
B16: PS371: ClpS amino acid recognition protein, SEQ ID NO: 4 (protein)
chain: MATETIERPRTRDPGSGLGGHWLVIVLNDDHNTFDHVAKTLARVIPGVTVDDGYRFADQIHQRGQAIVWRGPKEPAEHYWEQLQDAGLSMAPLERH
B17: PS426: ClpS amino acid recognition protein, SEQ ID NO: 49 (protein)
chain: MSIIEKTQENVAILEKVSINHEIILYNDDVNTFDHVIETLIRVCNHEELQAEQCAILVHYTGKCAVKTGSFDELQPLCLALLDAGLSAEIT
B18: PS435: ClpS amino acid recognition protein, SEQ ID NO: 58 (protein)
chain: MTLSVALGPDTQESTQTGTAVSTDTLTAPDIPWNLVIWNDPVNLMSYVSYVFQSYFGYSETKANKLMMEVHKKGRSIVAHGSKEQVEQHAVAMHGYGLWATVEKATGGNSGGGKSGGPGKGKGKRG
B19: PS547: ClpS amino acid recognition protein, SEQ ID NO: 61 (protein, listed as Gemmataceae bacterium)
chain: MGFPTDFRQSIEISTPLGSQQPRFSNASSEPALADPVLVINPRIQPRYHVILLNDDDHTYRYVIEMMLIVFGHPPEKGFLIAKEVDKAGRAICLTTSLEHAEFKQEQVHAYGADPYFGPKCKGSMTAVLEPAE
B20: PS372: ClpS amino acid recognition protein, SEQ ID NO: 5 (protein)
chain: MAFPARGKTAPKNEVRRQPPYNVILLNDDDHTYRYVIEMLQKIFGFPPEKGFQIAEEVDRTGRVILLTTSKEHAELKQDQVHSYGPDPYLGRPCSGSMTCVIEPAV
B21: PS418: ClpS amino acid recognition protein, SEQ ID NO: 41 (protein)
chain: MSDHNIDHDTSVAVHLDVVVREPPMYRVVLLNDDFTPMEFVVELLMHFFRKTAEQATQIMLNIHHEGVGVCGTYPREIAETKVAQVHQHARTNGHPLKCRMEPS
B22: PS417: ClpS amino acid recognition protein, SEQ ID NO: 40 (protein)
chain: MSNLDTDVLIDEKVKVVTTEPEKYRVILLNDDVTPMDFVINILVSIFKHSTDTAKDLTLKIHKEGSAIVGVYTYEIAEQKGIEATNESRQHGFPLQVKIERENTL
B23: PS432: ClpS amino acid recognition protein, SEQ ID NO: 55 (protein)
chain: MIGVEARTSSAPELAIETEIRLAGLWHVIVINDPVNLMSYVVMVLRKIFGFDDTKARKHMLEVHENGRSIVWSGEREPAEAYANTLHQWHLSAVLERDETD
B24: PS419: ClpS amino acid recognition protein, SEQ ID NO: 42 (protein)
chain: MEKEQSLCKEKTHVELSEPKHYKVVFHNDDFTTMDFVVKVLQLVFFKSQLQAEDLTMKIHLEGSATAGIYSYDIAQSKAQKTTQMAREEGFPLRLTVEPEDN
B25: PS423: ClpS amino acid recognition protein, SEQ ID NO: 46 (protein)
chain: MAPTPAGAAVLDKQQQRRHKHASRYRVLLHNDPVNTMEYVVESLRQVVPQLSEQDAIAVMVEAHNTGVGLVIVCDIEPAEFYCEQLKTKGLTSSIEPED
B26: PS546: ClpS amino acid recognition protein, SEQ ID NO: 60 (protein, listed as Planctomycetia bacterium)
chain: MSDTITLPGRPEVERDERTRRQPPYNVILHNDDDHTFEYVIVMLNQLFGYPPEKGYEMAKEVHLNGRVIVLTTSKEHAELKRDQIHAFGPDPFSSKDCKGSMSASIEPAY
B27: PS434: ClpS amino acid recognition protein, SEQ ID NO: 57 (protein)
chain: MSRLPWKQEAKFAATVIIDFPDATLEAPTIEKKEATEQQIEMPWNVVVHNDPVNLMSYVTMVFQRVFGYPRERAEKHMLEVHHSGRSILWSGLRERAELYVQQLHGYLLLATIEKTV

Tested on: amino acid at a terminal position of a polypeptide
Conditions: Table 1, ClpS proteins; amino acid at terminal position; inferred from literature and/or demonstrated by the inventors; cited from earlier work

Binding Pref., F, Y, W, L:
B2
B6
B7
B11
B12
B13
B16
B17
B18
B21
B24
B27

Binding Pref., L, I, V:
B20

Binding Pref., I, L, V:
B1
B3
B4
B8
B9
B14
B15
B19
B26

Binding Pref., F, Y, W:
B10
B22
B25

Binding Pref., F, W:
B5
B23
